Results from IntAct's records for PubMed 23322602.

Biological target: adt2_human SLC25A5 (UniProt P05141)
Sequence (P05141 whole entry): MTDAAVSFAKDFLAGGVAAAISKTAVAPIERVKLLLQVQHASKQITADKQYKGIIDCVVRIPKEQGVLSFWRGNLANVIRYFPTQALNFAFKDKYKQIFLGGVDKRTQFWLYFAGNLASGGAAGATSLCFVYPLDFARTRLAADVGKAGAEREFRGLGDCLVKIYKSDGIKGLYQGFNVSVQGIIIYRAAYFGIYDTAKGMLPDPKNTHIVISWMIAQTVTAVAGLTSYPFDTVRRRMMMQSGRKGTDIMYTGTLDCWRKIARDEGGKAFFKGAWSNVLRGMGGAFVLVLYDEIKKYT

Sequence of Cytoplasmic protein NCK2 (Homo sapiens), O43639 R311K (O43639 whole entry R311K): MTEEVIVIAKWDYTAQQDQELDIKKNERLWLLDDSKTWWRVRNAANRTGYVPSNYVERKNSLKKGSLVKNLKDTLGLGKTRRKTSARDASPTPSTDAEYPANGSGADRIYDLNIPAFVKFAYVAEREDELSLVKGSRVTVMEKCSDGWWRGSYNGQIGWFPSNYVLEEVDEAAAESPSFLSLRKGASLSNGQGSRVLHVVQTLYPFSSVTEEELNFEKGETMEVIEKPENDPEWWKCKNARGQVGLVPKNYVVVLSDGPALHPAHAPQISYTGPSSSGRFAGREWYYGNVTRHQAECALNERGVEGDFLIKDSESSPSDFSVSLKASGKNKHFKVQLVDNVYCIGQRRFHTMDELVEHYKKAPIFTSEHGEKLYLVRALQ

effect of a mutation on the interaction: disrupting interaction
Substance: Cytoplasmic protein NCK2 (Homo sapiens), O43639 R311K
